# Measured values reported in the supplement of paper PMC11865577.
# Test system: TO-3-N3-2 (biotin conjugate)
# Experiment: pull-down binding Z-score (relative to library population); higher = stronger binding
# Conditions: RNA library: Library-2
# Method in brief: (§1)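 Binding is given as a Z-score against the library mean and standard deviation, calculated after removing the beads-only signal and averaging barcoded replicate probes without their highest and lowest values. Cy5- or Cy3-end-labelled RNA library (1 μg) was heat-folded in phosphate/NaCl/KCl buffer and incubated 60 min at 25 °C with streptavidin beads bearing 100 pmol of biotin-conjugated small molecule. After three washes, RNA eluted in hot SDS was hybridised to a DNA barcode microarray for 20 h at 55.5 °C.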
row,Sequence,pull-down binding Z-score
1,CGUUCCAAUGCGACACCUCUAGAGUGUCAUCCCCUAGAAUGUCACCUUGGAAAG [hsa-mir-4432],-0.104
2,CGUUCGCUUUAUUUAUGGCGCACA [hsa-mir-323a],-0.271
3,CGUUGAGUGGGCACCCGAGAAGCCAUCG [hsa-mir-425],0.25
4,CGUUUAGUAGAUGAUUGUGCAUUGUUUCAAAAUG [hsa-mir-224],-0.358
5,CUAAAUGGUACCCACUUUAUUUAG [hsa-mir-5687],-0.0559
6,CUAACAGGCCCCUGUCACCAUUAG [hsa-mir-5579],-0.144
7,CUAAGCUAUGGACUGCUAUGGACUGCUAG [hsa-mir-4473],0.196
8,CUAAUCUCUUAGCACUGAAGAUUAG [hsa-mir-4671],-0.253
9,CUACAUCGUGGAAGCCAGCACCAUGCAG [hsa-mir-455],-0.206
10,CUACUAGUUUGUAGUAGUUCGUAGCAG [hsa-mir-3919],0.295
11,CUACUCAAGGCUAG [hsa-mir-4266],0.132
12,CUAGUAUGUCUCAUCCCCUACUAG [hsa-mir-151a],-0.201
13,CUAUCCUUCCCUUGGAAAAUGAUCUGAG [hsa-mir-4770],-0.189
14,CUAUGGCCCCCCUCCUCUCUGAAAGCAAGGCCACUUG [hsa-mir-8081],0.282
15,CUAUUCAGAAAUGUGGCCUGUGAUUAG [hsa-mir-1295a],0.231
16,CUCAACUCUUGGUCCUCUGAG [hsa-mir-3165],0.0789
17,CUCAAGUCCUCUAUUUCUUUGAA [hsa-mir-7978],-0.54
18,CUCAAUGUAGUCUUGUAAGGAACAGGUUGAAG [hsa-mir-595],0.34
19,CUCACAUGGAGUAAAAUAUGAU [hsa-mir-3134],0.194
20,CUCACCAUAGUGGUGGA [hsa-mir-1288],-0.646
21,CUCACGUGUGCCUGCCUGUGAG [hsa-mir-339],-0.521
22,CUCACUGCAGAAUUAUUUUGAG [hsa-mir-4524a],-0.267
23,CUCAGAGGGCUGAAGUGGUUGUGGGGAGGGGCUUCUGGG [hsa-mir-4296],4.91
24,CUCAGCAUGUUGAGCCCUGUCUCUGGGGAGCUGAC [hsa-mir-6505],-0.142
25,CUCAGCCUGGAAAAAGCUGAG [hsa-mir-4765],-0.575
26,CUCAGGAAUUGGAUAAGCUUUUCUGAG [hsa-mir-5194],-0.272
27,CUCAGGACAGCGGGUGUCAGCUUGCCUGAC [hsa-mir-6859-1_6859-3_6859-2_6859-4],0.241
28,CUCAUGAUAUGUUUGCCCCAUCAGCGUGUCACGAG [hsa-mir-3616],-0.139

# Test system: G-clamp-N3 (biotin conjugate)
# Experiment: as above
# Conditions: RNA library: Library-1 (pre-miRNA loops + repeats)
# Method in brief: as §1
row,Sequence,pull-down binding Z-score
1,CGCUAGUAGUGGCG [hsa-mir-3960],0.808
2,CGCUGAUGUGCAUUCAACUCAUUCUCAGCA [hsa-mir-1468],-1.2
3,CGCUGCCUGGAAUUAACCCCGCUGUG [hsa-mir-636],-1.15
4,CGCUGCUGGCUGCCUUCCAGCG [hsa-mir-4533],0.074
5,CGGAAUUCUCCAGAGCCUCUG [hsa-mir-6889],-0.773
6,CGGACACCCGGCCUCCACUUUCUGUGGCAGGUACCUCCUCCA [hsa-mir-4505],0.149
7,CGGACGUUGCUCUCUACCCCG [hsa-mir-1247],-0.101
8,CGGAGCAGUCACGUUGACGGAAUCCUCCG [hsa-mir-3183],0.489
9,CGGAGCCUCGCAGGGUCGGGCUCGGGCUCCCUAACCGUCUCCGCUUCUUC [hsa-mir-6084],-0.288
10,CGGAUCUCGAGGGUGCUUAUUGUUCGGUCCG [hsa-mir-615],1.11
11,CGGCGGCGGCGGCGGCGGCGGCGGCGGCGGCGGCGGCGGCGGCGGCGG [G4_r(CGG)16],-0.145
12,CGGGAACCUGCCUCCCG [hsa-mir-596],-0.566
13,CGGGCCCCUCCCCUCAAUGGGCCCG [hsa-mir-5685],0.108
14,CGGGCUGAUUGCGCUAACAGUGGCCCC [hsa-mir-4783],-0.491
15,CGGGGCGGACGCAGAGCCGCGUUUAGUCUAUCG [hsa-mir-639],-0.413
16,CGGGGGGGGCCCGGGGACGGCUUGGGCCUGCCUAGUCGG [hsa-mir-1234],1.65
17,CGGUACCCACUGCUGAGGGUGGGGACCA [hsa-mir-3691],-0.0994
18,CGGUCCCAUAUUGAACUCG [hsa-mir-4444-1_4444-2],-1.03
19,CGGUCGGAUAAUCACAUGACGAG [hsa-mir-2114],0.425
20,CGGUGGUCCCUCCCG [hsa-mir-3687-1_3687-2],-0.273
21,CGGUGUGCAAAUGUGUGUGUGCGGUGUUAUGCCG [hsa-mir-4442],-0.0251

row,Sequence,pull-down binding Z-score
1,CGUACGCUUUAUCUGUGACGUAUG [hsa-mir-411],0.625
2,CGUAGGCGUUAUGAUUUCUGACCUAUG [hsa-mir-379],-0.994
3,CGUAUGUGUAUAUAAAUGUAUACG [hsa-mir-1277],0.912
4,CGUGCAAGUUUAAGUUUUUGCACG [hsa-mir-4445],0.55
5,CGUGCACGUACCUGUCACAUGUGUACG [hsa-mir-3939],-0.021
6,CGUGCGCCAGUGGAG [hsa-mir-6089-2_6089-1],-0.0599
7,CGUGCUCAGCUUGGCACCCAAGUUCUGC [hsa-mir-7704],-0.0193
8,CGUUCCAAUGCGACACCUCUAGAGUGUCAUCCCCUAGAAUGUCACCUUGGAAAG [hsa-mir-4432],-1.26
9,CGUUCGCUUUAUUUAUGGCGCACA [hsa-mir-323a],-0.817
10,CGUUGAGUGGGCACCCGAGAAGCCAUCG [hsa-mir-425],-0.628
11,CGUUUAGUAGAUGAUUGUGCAUUGUUUCAAAAUG [hsa-mir-224],-0.24
12,CUAAAUGGUACCCACUUUAUUUAG [hsa-mir-5687],-0.726
13,CUAACAGGCCCCUGUCACCAUUAG [hsa-mir-5579],-0.762
14,CUAAGCUAUGGACUGCUAUGGACUGCUAG [hsa-mir-4473],-0.249
15,CUAAUCUCUUAGCACUGAAGAUUAG [hsa-mir-4671],-0.0111
16,CUACAUCGUGGAAGCCAGCACCAUGCAG [hsa-mir-455],0.169
17,CUACUAGUUUGUAGUAGUUCGUAGCAG [hsa-mir-3919],0.56
18,CUACUCAAGGCUAG [hsa-mir-4266],-0.163
19,CUAGUAUGUCUCAUCCCCUACUAG [hsa-mir-151a],0.0263
20,CUAUCCUUCCCUUGGAAAAUGAUCUGAG [hsa-mir-4770],-0.925
21,CUAUGGCCCCCCUCCUCUCUGAAAGCAAGGCCACUUG [hsa-mir-8081],-1.13
